Reference: patent US20080081903A1, “METHOD FOR SCREENING TRANSCRIPTIONAL COREGULATORY PROTEINS OF TRANSCRIPTION FACTORS, AND ANDROGEN RECEPTOR TRANSCRIPTIONAL COREGULATORY PROTEINS AS TARGETS FOR ANDROGEN RECEPTOR-DEPENDENT DISEASES” (NEW YORK UNIVERSITY, priority 2001, published 2008)

Target: T1, androgen receptor transcriptional activation (Homo sapiens, UniProt P10275)
T1 construct: The pcDNA3:hAR expression plasmid was used to produce full length human AR; expressed in transfected cells; host or cells: HeLa and PC-3 (both AR deficient)
T1 sequence (P10275 1-920): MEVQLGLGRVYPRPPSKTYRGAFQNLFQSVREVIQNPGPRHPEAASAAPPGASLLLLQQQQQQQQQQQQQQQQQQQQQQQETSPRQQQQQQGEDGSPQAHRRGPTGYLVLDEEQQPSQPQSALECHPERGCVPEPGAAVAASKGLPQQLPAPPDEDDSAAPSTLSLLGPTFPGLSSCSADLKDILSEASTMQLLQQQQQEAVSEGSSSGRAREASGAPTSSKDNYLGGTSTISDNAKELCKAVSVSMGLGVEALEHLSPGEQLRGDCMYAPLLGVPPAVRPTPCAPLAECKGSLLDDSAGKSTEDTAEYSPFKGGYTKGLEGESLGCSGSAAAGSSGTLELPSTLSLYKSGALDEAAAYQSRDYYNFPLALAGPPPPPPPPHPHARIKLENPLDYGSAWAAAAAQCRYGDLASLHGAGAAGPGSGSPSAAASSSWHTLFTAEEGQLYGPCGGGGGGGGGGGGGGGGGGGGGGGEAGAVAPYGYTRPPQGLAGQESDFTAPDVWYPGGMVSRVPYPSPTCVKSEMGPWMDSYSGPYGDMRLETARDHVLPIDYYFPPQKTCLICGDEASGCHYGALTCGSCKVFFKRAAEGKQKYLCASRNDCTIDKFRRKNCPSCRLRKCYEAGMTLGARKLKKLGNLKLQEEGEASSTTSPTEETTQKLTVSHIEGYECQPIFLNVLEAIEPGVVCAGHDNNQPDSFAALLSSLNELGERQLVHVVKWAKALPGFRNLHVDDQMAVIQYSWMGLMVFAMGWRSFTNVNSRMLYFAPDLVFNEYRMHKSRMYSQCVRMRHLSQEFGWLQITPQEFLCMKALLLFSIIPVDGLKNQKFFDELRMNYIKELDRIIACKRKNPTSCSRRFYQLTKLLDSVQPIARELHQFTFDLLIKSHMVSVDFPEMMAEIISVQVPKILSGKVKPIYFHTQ
Test: Transient transfection, AR-responsive luciferase reporter assay
Assay type: cell-based
Details: overexpressed in cultured mammalian cells
Excerpt: The two ART-27 derivatives used in the mammalian cell culture experiments were constructed as follows: using EcoRI-XhoI, ART-27 was subcloned from pEG202:ART-27 into a pcDNA3 vector that has an N-terminal HA epitope (pCDNA3-HA) in the same reading frame as the LexA moiety in pEG202 with respect to the EcoRI site; ART-271-127 was subcloned from pEG202:ART-271-127 into pcDNA3-HA, pJG4-5:Sp183-262, pJG4-5:Sp1263-542, pJG4-5:TAF130270-700, and pJG4-5:CREB3-296 were provided by N. Tanese (New York University School of Medicine, New York). pJG4-5:SRC-1374-800 was provided by H. Samuels (New York University School of Medicine, New York). pJG4-5:GR107-237 was previously described (Hittelman et al., 1999). The pJK103 reporter plasmid, which contains a single LexA operator linked to β-galactosidase, was used in all activity assays of the LexA fusion proteins and in the modified two-hybrid assay. The pΔ4X-LALO-luciferase reporter plasmid, which contains four LexA operators upstream of a minimal Drosophila alcohol dehydrogenase promoter linked to luciferase, was used in mammalian activity assays to monitor the intrinsic transcriptional activity of the LexA fusion proteins. […]

B1: ART-5: Androgen Receptor Trapped protein, SEQ ID NO:4, unknown function, represented in EST database (protein)
chain: MHNPDGSASPTADPGSELQTLGQAARRPPPPRAGHDAPRRTRPSARKPLSCFSRRPMPTREPPKTRGSRGHLHTHPPGPGPPLQGLAPRGLKTSAPRPPCQPQPGPHKAKTKKIVFEDELLSQALLGAKKPIGAIPKGHKPRPHPVPDYELKYPPVSSERERSRYVAVFQDQYGEFLELQHEVGCAQAKLRQLEALLSSLPPPQSQKEAQVAARVWREFEMKRMDPGFLDKQARCHYLKGKLRHLKTQIQKFDDQGDSEGSVYF
modifications: Human
Q: With B1 as the molecule, how does the androgen receptor-dependent transactivation read?
A: increase
